Assay results published in PMC4596688 (2015).
Ends that are not written are not given here. * marks the point of attachment. FITC = O=C1OC2(c3ccc(O)cc3Oc3cc(O)ccc32)c2ccc(NC(=S)*)cc21

Tests used:
[1] = target: T1, Full-length human CRM1 (HsCRM1) (human, UniProt O14980 1-1071); test: MST; direct titration, left panel
[2] = target: T1, Full-length human CRM1 (HsCRM1); test: MST; direct titration, right panel
[3] = target: T1, Full-length human CRM1 (HsCRM1); test: MST; direct titration, middle panel
[4] = target: T1, Full-length human CRM1 (HsCRM1); test: MST; competition with FITC-PKI^NES

T1 sequence (O14980 whole entry): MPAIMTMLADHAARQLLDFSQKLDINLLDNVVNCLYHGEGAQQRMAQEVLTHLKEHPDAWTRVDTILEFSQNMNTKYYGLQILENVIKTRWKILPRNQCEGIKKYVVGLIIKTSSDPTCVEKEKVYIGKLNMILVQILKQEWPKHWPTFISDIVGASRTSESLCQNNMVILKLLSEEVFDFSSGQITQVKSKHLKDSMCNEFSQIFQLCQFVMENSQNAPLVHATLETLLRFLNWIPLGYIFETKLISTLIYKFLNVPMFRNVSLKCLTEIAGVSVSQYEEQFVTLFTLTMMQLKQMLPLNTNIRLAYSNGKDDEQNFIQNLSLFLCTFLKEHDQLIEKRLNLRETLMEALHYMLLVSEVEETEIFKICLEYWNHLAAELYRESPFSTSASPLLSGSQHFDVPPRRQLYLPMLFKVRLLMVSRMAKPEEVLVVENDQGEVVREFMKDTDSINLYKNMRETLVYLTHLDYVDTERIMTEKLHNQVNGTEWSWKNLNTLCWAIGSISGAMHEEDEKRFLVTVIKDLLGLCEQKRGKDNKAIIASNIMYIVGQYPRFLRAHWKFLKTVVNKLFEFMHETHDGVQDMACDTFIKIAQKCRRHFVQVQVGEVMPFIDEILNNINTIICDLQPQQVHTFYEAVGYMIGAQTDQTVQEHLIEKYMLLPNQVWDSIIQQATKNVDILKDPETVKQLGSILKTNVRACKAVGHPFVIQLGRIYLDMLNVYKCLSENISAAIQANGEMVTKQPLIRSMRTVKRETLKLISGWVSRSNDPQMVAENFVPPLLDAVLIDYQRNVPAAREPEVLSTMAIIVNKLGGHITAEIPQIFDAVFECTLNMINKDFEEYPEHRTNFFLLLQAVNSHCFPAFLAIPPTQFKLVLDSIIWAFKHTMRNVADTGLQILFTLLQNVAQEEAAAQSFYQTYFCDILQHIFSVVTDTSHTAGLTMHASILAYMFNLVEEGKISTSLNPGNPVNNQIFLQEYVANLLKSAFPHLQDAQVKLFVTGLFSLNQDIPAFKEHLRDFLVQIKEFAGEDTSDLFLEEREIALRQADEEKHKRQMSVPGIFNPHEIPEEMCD

Binder	Kd [1] [nM]	Kd [2] [nM]	Kd [3] [nM]	Kd [4] [nM]
{FITC}-SGNSNELALKLAGLDINKT [FITC-PKI^NES peptide (FITC-SGNSNELALKLAGLDINKT)]	37	44	30	–
MEELSQALASSFSVSQ [MBP-SNUPN^NES]	–	–	–	12000
SNELALKLAGLDI [MBP-PKI^NES]	–	–	–	36
